Experimental data reported in US5962253A, “Oxidative decarboxylation of peptides catalyzed by flavoprotein EpiD” (Boehringer Ingelheim International GmbH, priority 1996, dated 1999).
Non-standard residues stand in square brackets, D forms with d. No end group written: not given here. hCys = N[C@@H](CCS)C(=O)O

Tests used:
flavoprotein EpiD [1] = molecular target: T1, flavoprotein EpiD (Staphylococcus epidermidis, UniProt P30197); experiment: EpiD enzyme assay, oxidative decarboxylation of single peptides (reversed phase chromatography, ES-MS); assay type: biochemical, Staphylococcus epidermis; parameters: key to Reaction with EpiD: +: reaction with EpiD; -: no reaction with EpiD occurred, this indicates that using the given assay conditions, no reaction product was detected; conditions: for Reaction with EpiD: single peptide determinations, 0.5-1 h at 37° C., pH 8.0, 3 mM dithiothreitol; for substrate of EpiD / reaction with EpiD (in words): single peptides
T1 construct: made in house; host or cells: E. coli K38 (pGP1-2, pT7-5epiD)
Source text: For the determination of the minimal size of the substrate, synthetic peptides with increasingly larger deletions of the amino terminus were used (Table 1). Reaction products were identified by their increasing hydrophobicity, increased absorption at 260 nm in 0.1% trifluoroacetic acid/H2 O/acetonitrile (FIGS. 19A and 19B), and the mass decrease of 46 Da as compared with the unmodified peptides. […] For a further study of the substrate specificity of EpiD, the heptapeptide SFNSYCC (SEQ ID NO: 2) was used. The serine and cysteine residues of the peptide SFNSYCC (SEQ ID NO: 2) form the COOH-terminal bicyclus of mature epidermin, and the possibility could not be excluded that amino acid exchanges in this peptide have an influence on the reaction with EpiD.
The method of the invention, which provides for the oxidative decarboxylation of a peptide, can be carried out in vitro under the following conditions, although it will be clear to those of ordinary skill in the art that the parameters given herein for carrying out the enzymatic reaction may be varied. The enzymatic reaction can be carried out at a temperature of 37° C. in 20 mMTris/HCl buffer (pH 8.0) containing 3 mM dithiothreitol, 1-2 μg of EpiD (the concentration of which is determined according to the method of Bradford, Anal. Biochem. 72:248-254 (1976)), and 10-50 μg of peptide, in a total volume of 1 ml. The enzymatic reaction is carried out for between 0.5 and 1 h.
Purification of EpiD and Enzyme Assay--EpiD was purified as described previously using E. coli expression plasmid pT7-5apiD (Kupke, T. et al, J. Bacteriol. 174:5354-5361 (1992)). The concentration of the EpiD solution was determined according to Bradford (Bradford, M. M., Anal. Biochem. 72:248-254 (1976)); the concentrations of the precursor peptide solutions were estimated by the absorbance at 205 nm using an extinction coefficient of 31 for a protein solution of 1 mg/ml (Janson, J. C., & Ryden, L., Methods Enzymol. 193:441-455 (1990)); the synthetic peptic substrates were weighed out. The enzyme was assayed for 0.5-1 h at 37° C. in 20 mM Tris/HCl buffer (pH 8.0) containing 3 mM dithiothreitol, 1-2 μg of EpiD, and 10-25 μg of precursor peptide or 50 μg of synthetic peptide in a total volume of 1 ml. The reaction mixture was then separated by reversed phase chromatography using a μRPC C2/C18 SC 2.1/10 column (Pharmacia Biotech Inc.). Peptides were eluted with a linear gradient of 0-50% acetronitrile, 0.1% trifluoroacetic acid in 3.8 ml with a flow rate of 200 μl/min. The absorbance was measured simultaneously at 214, 260, and 280 nm. The peptides were collected by the peak fractionation method, dried with a vacuum concentrator, stored at -70° C., dissolved in 30% acetonitrile, and analyzed by ES-MS.

flavoprotein EpiD [2] = molecular target: T1, flavoprotein EpiD; experiment: Incubation of peptide libraries with EpiD, ES-MS and neutral loss mass spectrometry; assay type: biochemical, Staphylococcus epidermis; conditions: ES-MS and neutral loss scans
Procedure: Heptapeptide sublibraries with one variable amino acid residue (wherein the variable amino acid residue can be any one of the 20 common amino acids Ala, Arg, Asn, Asp, Cys, Gln, Glu, Gly, His, Ile, Leu, Lys, Met, Phe, Pro, Ser, Thr, Trp, Tyr, or Val) at positions 1-7 of the peptide substrate S^1 FNSYCC^7 (SEQ ID NO: 2) were synthesized and incubated with EpiD. Peptides were identified by their masses using product ion scans and neutral loss scans and by comparison of the mass spectra obtained after various incubation times. The heptapeptides with a single amino acid substitution at positions 1-4 were substrates of EpiD (Table 2). At positions 5-7 of the peptide, not all amino acid residues were possible, so the last three amino acids determined the substrate specificity for EpiD (Table 2). […]
Peptide libraries were dissolved to a concentration of 1-2 mg/ml in 20 mM Tris/HCl buffer (pH 8.0) containing 3 mM dithiothreitol. […] Neutral loss scans were recorded after 3 h of incubation.
Electrospray and Tandem Mass Spectrometry--Electrospray mass spectra (Bruins, A. P., et al., Anal. Chem. 59:2642-2646 (1987); Covey, T. R., et al., Rapid Commun. Mass Spectrom. 2:249-256 (1988)) were recorded on a triple quadrupole mass spectrometer API III with a mass range of m/z 10-2400 equipped with a nebulizer-assisted electrospray ("ion spray") source (Sciex, Thornbill, Ontario, Canada). […]

EpiD = EpiD (Staphylococcus epidermidis, UniProt P30197); conditions: cited from earlier work; for Reaction with EpiD: reducing conditions, reversed phase chromatography and ES-MS
[3] = Determination of the isoelectric point by isoelectric focusing and immunoblot; assay type: physicochemical; conditions: most basic band used
Procedure: Therefore, the modified peptides should be more basic than the educts. In order to verify this hypothesis, the isoelectric points of the products and the educts were determined. […] All of the bands were more basic than the educts, and for determination of the isoelectric points, the most basic bands were used. In the case of EpiAR-1Q -46 Da, the most basic band was the most intense band.
The peptide mixture Serva No. 39211 was used as an isoelectric focusing standard. Isoelectric focusing was carried out according to the instruction manual of Serva. The focused peptides were blotted on nitrocellulose and detected with an anti-MBP-EpiA antiserum (Kupke, T., et al., FEMS Lett. 112:43-48 (1993)) using the ECL system (Amersham Corp.).

Sequence of EpiD (P30197 whole entry): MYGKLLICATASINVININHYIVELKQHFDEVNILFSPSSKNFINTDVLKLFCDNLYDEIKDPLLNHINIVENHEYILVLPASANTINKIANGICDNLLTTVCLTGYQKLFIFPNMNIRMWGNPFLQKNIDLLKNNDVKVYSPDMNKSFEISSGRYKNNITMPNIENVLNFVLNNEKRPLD
T1 sequence (P30197 whole entry): as above

Row | Compound | Reaction with EpiD (flavoprotein EpiD [1]) | substrate of EpiD / reaction with EpiD (in words) (flavoprotein EpiD [1]) | also measured
1 | Synthetic proepidermin: chemically synthesized proepidermin (amino acids +1 to +22 of EpiA) (IASKFICTPGCAKTGSFNSYCC) | + |  | 
2 | SFNSMCC |  |  | substrate of EpiD / reaction product in library (in words) (flavoprotein EpiD [2]): weak
3 | SFNSYCC--NH2 (SFNSYCC-NH2; cysteine pairing not given here) [the amide of SFNSYCC] | - | not substrates of EpiD | 
4 | SFNSYCHCy (SFNSYC[hCys]; cysteine pairing not given here) [peptide SFNSYC with COOH-terminal homocysteine residue] | - | not substrates of EpiD | 
5 | EpiAdesC^+22 (MEAVKEKNDLFNLDVKVNAKESNDSGAEPRIASKFICTPGCAKTGSFNSYC) | - | not all peptides with a COOH-terminal cysteine residue were a substrate of EpiD | 
6 | EpiAS + 19A (MEAVKEKNDLFNLDVKVNAKESNDSGAEPRIASKFICTPGCAKTGSFNSYCC) | + | substrate for oxidative decarboxylation | 
7 | [Zn+2] [Zn^2+, reference compound] |  |  | effect on the EpiD reaction (EpiD): inhibited
8 | EpiAR-1Q: mutated EpiA with a mutation in the cleavage sequence of the EpiA leader (MEAVKEKNDLFNLDVKVNAKESNDSGAEPRIASKFICTPGCAKTGSFNSYCC) | + |  | Reaction with EpiD (EpiD): reacts; isoelectric point [3]: 5.0 pH
9 | K-EpiA (MEAVKEKNDLFNLDVKVNAKESNDSGAEPRIASKFICTPGCAKTGSFNSYCC) | + |  | 
10 | Proepidermin: COOH-terminal proepidermin fragment of EpiA (amino acids +1 to +22) (IASKFICTPGCAKTGSFNSYCC) | + |  | Reaction with EpiD (EpiD): reacts
11 | EpiAC + 22S (MEAVKEKNDLFNLDVKVNAKESNDSGAEPRIASKFICTPGCAKTGSFNSYCC) | - | No reaction occurred | 
12 | SFNSYGC | - |  | 
